2 molecules from patent publication US20130309222A1 (Janssen / Centocor, published 2013) can be followed below.

For experiment [1], the target named is infliximab. In words: ELISA, infliximab captured on goat anti-human Fc, biotinylated peptide titrated, streptavidin-HRP, luminescence. Background: In an ELISA, binding on a coated surface is turned into a signal by an enzyme label.
Experiment [2] deals with infliximab. The experiment is described as follows: SPR (Biacore S51), biotinylated peptide on streptavidin chip, infliximab as analyte, 1:1 Langmuir fit, average of N=2.

Ends that are not written are not given here.

infliximab, sequence (VH, as listed by the source, chain 1 of 2): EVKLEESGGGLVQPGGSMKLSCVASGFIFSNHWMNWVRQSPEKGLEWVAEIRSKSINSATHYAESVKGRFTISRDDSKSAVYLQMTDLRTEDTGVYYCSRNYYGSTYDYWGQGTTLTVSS
infliximab, sequence (VL, as listed by the source, chain 2 of 2): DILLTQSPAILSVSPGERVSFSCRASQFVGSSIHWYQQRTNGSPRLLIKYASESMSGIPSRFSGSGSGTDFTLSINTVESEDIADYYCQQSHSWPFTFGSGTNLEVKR

B1: biotinylated, chemically synthesized peptide having SEQ ID NO: 10 (peptide)
peptide: AGVWCGDETLPPSICFR
modifications: cysteine pairing not given here; also: biotinylated, position not given here
notes: Fmoc solid phase synthesis; also called 1067B
A word on the EC50 (read off the curve): it is the concentration needed to bring the measured effect to its halfway point. A lower EC50 (read off the curve) goes with greater potency. By Kd is commonly meant the constant that tells how readily two partners part at equilibrium. Low readings indicate higher affinity, high ones lower affinity. For the molecule B1, the “EC50 (read off the curve)” value with infliximab [1] is approximately 10000 nM. The same molecule gave a Kd in the experiment with infliximab [2] of 9.17 nM.

B2: biotinylated, chemically synthesized peptide having SEQ ID NO: 2 (peptide)
peptide: AGYVCDPAGPNCWA
modifications: cysteine pairing not given here; also: biotinylated, position not given here
notes: Fmoc solid phase synthesis; also called 1011A
Turning to B2, in the experiment with infliximab [1], the “EC50 (read off the curve)” value was approximately 3000 nM. This molecule displayed a Kd with infliximab [2] of 17.1 nM.
